Assay results taken from patent publication US20080299544.

B1: NS3/4a PI (protein)
chain: MAPITAYAQQTRGLLGCIITSLTGRDKNQVEGEVQIVSTAAQTFLATCINGVCWTVYHGAGTRTIASPKGPVIQMYTNVDQDLVGWPAPQGSRSLTPCTCGSSDLYLVTRHADVIPVRRRGDSRGSLLSPRPISYLKGSSGGPLLCPAGHAVGIFRAAVCTRGVAKAVDFIPVENLETTMRSPVFTDNSSPPVVPQSFQVAHLHAPTGSGKSTKVPAAYAAQGYKVLVLNPSVAATLGFGAYMSKAHGIDPNIRTGVRTITTGSPITYSTYGKFLADGGCSGGAYDIIICDECHSTDATSILGIGTVLDQAETAGARLVVLATATPPGSVTVPHPNIEEVALSTTGEIPFYGKAIPLEVIKGGRHLIFCHSKKKCDELAAKLVALGINAVAYYRGLDVSVIPPIGDVVVVATDALMTGYTGDFDSVIDCNTCVTQTVDFSLDPTFTIETITLPQDAVSRTQRRGRTGRGKPGIYRFVAPGERPSGMFDSSVLCECYDAGCAWYELTPAETTVRLRAYMNTPGLPVCQDHLEFWEGVFTGLTHIDAHFLSQTKQSGENLPYLVAYQATVCARAQAPPPSWDQMWKCLIRLKPTLHGPTPLLYRLGAVQNEITLTHPVTKYIMTCMSADLEVVTSTWVLVGGVLAALAAYCLSTGCVVIVGRVVLSGKPAIIPDREVLYREFDEMEEC
MEFA 7.1
  proteolytic cleavage (SDS-PAGE and anti-hSOD Western blot after 30 minutes at room temperature): the NS3/4a cleaved MEFA 7.1 (lane 5, FIGS. 14A and 14B)
MEFA 7.2
  proteolytic cleavage (SDS-PAGE and anti-hSOD Western blot after 30 minutes at room temperature): MEFA 7.2, on the other hand, showed no degradation (lane 6, FIGS. 14A and 14B)
